Patent US20020197661

Biological target: T1, Acetyl-Prolyl-Arginyl-Asparaginyl-Lysyl-aminoacetamide coumarin (Ac-PRNK-ACC)
T1 chain: PRNK

B1: bovine factor Xa protease (Promega) (protein)
chain: ANSFLEEVKQGNLERECLEEACSLEEAREVFEDAEQTDEFWSKYKDGDQCEGHPCLNQGHCKDGIGDYTCTCAEGFEGKNCEFSTREICSLDNGGCDQFCREERSEVRCSCAHGYVLGDDSKSCVSTERFPCGKFTQGRSRRWAIHTSEDALDASELEHYDPADLSPTESSLDLLGLNRTEPSAGEDGSQVVRIVGGRDCAEGECPWQALLVNEENEGFCGGTILNEFYVLTAAHCLHQAKRFTVRVGDRNTEQEEGNEMAHEVEMTVKHSRFVKETYDFDIAVLRLKTPIRFRRNVAPACLPEKDWAEATLMTQKTGIVSGFGRTHEKGRLSSTLKMLEVPYVDRSTCKLSSSFTITPNMFCAGYDTQPEDACQGDSGGPHVTRFKDTYFVTGIVSWGEGCARKGKFGVYTKVSNFLKWIDKIMKARAGAAGSRGHSEAPATWTVPPPLPL
B1 was tested, and the “cleavage of the fluorogenic substrate (fluorescence, excitation 355 nm, emission 460 nm)” value was “Ac-PRNK-ACC (SEQ. ID. NO: 12) is a specific substrate for tryptase in relation to other blood borne serine proteases”.
